Source: patent publication US12258605B2, “Alkane oxidation by modified hydroxylases” (The California Institute of Technology, priority 2005, dated 2025)

Assays:
[1] = T50 determination (heat inactivation of CO-binding); format: physicochemical
Experimental: T50 determination. A solution of purified enzyme (1-3 μM) in 100 mM KPi pH 8.0 buffer was transferred on a PCR 96-well plate and incubated for 10 minutes at different temperatures (from 37° C. to 60° C.) in a PCR thermocycler. The plate was then cooled on ice, centrifuged at 1500 g for 10 min. 160 μL of the protein solution was then transferred on a 96-well microtiter plate with 40 μL of sodium hydrosulfite 0.1 M in 1 M KPi pH 8.0. A protein sample incubated at room temperature and one incubated on ice were included in the series. Concentration of folded protein was then determined by measuring CO-binding difference spectra using absorption at 450 and 490 nm and extinction coefficient ε450-490=91,000 M^−1 cm^−1. CO-binding signals were normalized to protein concentration of the sample incubated at 4° C. T50 values were calculated as midpoint inactivation temperatures from nonlinear fitting to the heat-inactivation curves. Experiments were carried out in triplicate.
As a first step, we aimed at increasing the thermostability of 35E11 heme domain in order to obtain a more ‘evolvable’ parent. […] To regain stability and allow further evolution, stabilizing mutations, derived from a thermostable peroxygenase, was tested in single and in combination (Table 16). The effect on enzyme's thermostability of each single mutation or combination thereof on thermostability was evaluated by monitoring temperature-dependent inactivation of the enzyme's CO-binding (FIG. 36C). Among 35E11 derivatives, ETS8 was selected as the best candidate for further evolution experiments, in that its higher thermostability (ΔT50=+5.1° C.) was accompanied by only a 20% decrease in propane activity on propane. […]
T50 values determined from heat-inactivation curves of heme-dependent CO-binding spectral shift show how mutations accumulated during laboratory evolution affected enzyme stability (FIG. 37E) and enable an estimation per-mutation stability penalties for each directed evolution round (FIG. 37F). […]

[2] = laurate; cited from earlier work
[3] = Substrate profile on C2 to C10 alkanes (TTN normalized, MTN); format: biochemical; settings: highest TTN in the alkane series
Experimental: Reactions on alkanes. Reactions with alkanes from pentane to decane were carried out at 3 mL-scale using 100 mM KPi pH 8.0 buffer containing 2% ethanol (to allow alkane solubilization) and purified protein. 2.5 mL KPi buffer were added with 60 μL of 90 mM alkane solution in ethanol (final conc.=1.8 mM), 150 μL enzyme solution at 1 μM (final conc.=50 nM), and 300 μL NADPH regeneration solution (100 units/mL isocitrate dehydrogenase, 70 mg/mL isocitrate, 1.5 mg/ml NADP^+). Vials were sealed and stirred for 24 hours at 4° C. 1 mL-aliquot of the reaction was removed, added with 10 μl internal standard (25 mM 1-bromohexane in ethanol), and extracted with 200 μl chloroform (30 sec vortexing, 1 min centrifugation at 10000 g). The organic phase was removed and analyzed by gas chromatography. Reactions with ethane, propane, and butane were carried out as described for longer alkanes with the only difference that alkane-saturated KPi buffer was used. […] Propane and butane reactions were analyzed by direct injection of reaction solution on the GC using 1-pentanol as internal standard. Ethane reaction products were functionalized (see below) and analyzed by GC using 1-butanol as internal standard. […]
TTNs for each variant-substrate pair were determined using standardized reaction conditions (identical enzyme and substrate concentration, incubation time, cofactor regeneration system) (Table 18). […]

Molecule	T50 ([1]; 10 minutes incubation, midpoint inactivation temperature of CO-binding) [°C]	ΔT50 ([1]; relative to 35E11) [°C]	ΔT50 ([1]; stability loss from wild-type to 35E11) [°C]	Km [2] [µM]	catalytic efficiency [2] [M⁻¹ s⁻¹]	MTN (Maximal Turnover Number) [3]
35-E11: P450 BM-3 variant, SEQ ID NO:7: 53-5H substitutions plus E464G and I710T (protein, mutant P450 35-E11 protein sequence) TIKEMPQPKTFGELKNLPLLNTDKPVQALMKIADELGEIFKFEAPGCVTRYLSSQRLIKEACDESRFDKNLSQALKFFRDFSGDGLFTSWTHEINWKKAHNILLPSFSQQAMKGYHAMMVDIAVQLVQKWERLNADEHIEVSEDMTRLTLDTIGLCGFNYRFNSFYRDQPHPFIISMVRALDEVMNKLQRANPDDPAYDENKRQCQEDIKVMNDLVDKIIADRKARGEQSDDLLTQMLNGKDPETGEPLDDGNISYQIITFLIAGHETTSGLLSFALYFLVKNPHVLQKVVEEAARVLVDPVPSYKQVKQLKYVGMVLNEALRLWPTFPAFSLYAKEDTVLGGEYPLEKGDEVMVLIPQLHRDKTIWGDDVEEFRPERFENPSAIPQHAFKPFGNGQRACIGQQFALHEATLVLGMMLKHFDFEDHTNYELDIKETLTLKPEGFVVKAKSKKIPLGGIPSPSTGQSAKKVRKKAENAHNTPLLVLYGSNMGTAEGTARDLADIAMSKGFAPQVATLDSHAGNLPREGAVLIVTASYNGHPPDNAKQFVDWLDQASADEVKGVRYSVFGCGDKNWATTYQKVPAFIDETLAAKGAENIADRGEADASDDFEGTYEEWREHMWSDVAAYFNLDIENSEDNKSTLSLQFVDSAADMPLAKMHGAFSTNVVASKELQQPGSARSTRHLEIELPKEASYQEGDHLGVIPRNYEGTVNRVTARFGLDASQQIRLEAEEEKLAHLPLAKTVSVEELLQYVELQDPVTRTQLRAMAAKTVCPPHKVELEALLEKQAYKEQVLAKRLTMLELLEKYPACEMKFSEFIALLPSIRPRYYSISSSPRVDEKQASITVSVVSGEAWSGYGEYKGIASNYLAELQEGDTITCFISTPQSEFTLPKDPETPLIMVGPGTGVAPFRGFVQARKQLKEQGQSLGEAHLYFGCRSPHEDYLYQEELENAQSEGIITLHTAFSRMPNQPKTYVQHVMEQDGKKLIELLDQGAHFYICGDGSQMAPAVEATLMKSYADVHQVSEADARLWLQQLEEKGRYAKDVWAG	43.4 ± 0.6	0	−11.6			
Wild-type BM-3: wild-type cytochrome P450 BM-3 from Bacillus megaterium, SEQ ID NO:1 (protein, listed as Bacillus megaterium) TIKEMPQPKTFGELKNLPLLNTDKPVQALMKIADELGEIFKFEAPGRVTRYLSSQRLIKEACDESRFDKNLSQALKFVRDFAGDGLFTSWTHEKNWKKAHNILLPSFSQQAMKGYHAMMVDIAVQLVQKWERLNADEHIEVPEDMTRLTLDTIGLCGFNYRFNSFYRDQPHPFITSMVRALDEAMNKLQRANPDDPAYDENKRQFQEDIKVMNDLVDKIIADRKASGEQSDDLLTHMLNGKDPETGEPLDDENIRYQIITFLIAGHETTSGLLSFALYFLVKNPHVLQKAAEEAARVLVDPVPSYKQVKQLKYVGMVLNEALRLWPTAPAFSLYAKEDTVLGGEYPLEKGDELMVLIPQLHRDKTIWGDDVEEFRPERFENPSAIPQHAFKPFGNGQRACIGQQFALHEATLVLGMMLKHFDFEDHTNYELDIKETLTLKPEGFVVKAKSKKIPLGGIPSPSTEQSAKKVRKKAENAHNTPLLVLYGSNMGTAEGTARDLADIAMSKGFAPQVATLDSHAGNLPREGAVLIVTASYNGHPPDNAKQFVDWLDQASADEVKGVRYSVFGCGDKNWATTYQKVPAFIDETLAAKGAENIADRGEADASDDFEGTYEEWREHMWSDVAAYFNLDIENSEDNKSTLSLQFVDSAADMPLAKMHGAFSTNVVASKELQQPGSARSTRHLEIELPKEASYQEGDHLGVIPRNYEGIVNRVTARFGLDASQQIRLEAEEEKLAHLPLAKTVSVEELLQYVELQDPVTRTQLRAMAAKTVCPPHKVELEALLEKQAYKEQVLAKRLTMLELLEKYPACEMKFSEFIALLPSIRPRYYSISSSPRVDEKQASITVSVVSGEAWSGYGEYKGIASNYLAELQEGDTITCFISTPQSEFTLPKDPETPLIMVGPGTGVAPFRGFVQARKQLKEQGQSLGEAHLYFGCRSPHEDYLYQEELENAQSEGIITLHTAFSRMPNQPKTYVQHVMEQDGKKLIELLDQGAHFYICGDGSQMAPAVEATLMKSYADVHQVSEADARLWLQQLEEKGRYAKDVWAG				210	190000	150
